Results as given in US20130274191A1 (THOMAS JEFFERSON UNIVERSITY, published 2013).
Non-standard residues stand in square brackets, D forms with d. No end group written: not given here. Sar = CNCC(=O)O

Target: T1, human Angiotensin II type 1 receptor (AT1R) (human, UniProt P30556 1-359, limits assumed)
T1 sequence (looked up): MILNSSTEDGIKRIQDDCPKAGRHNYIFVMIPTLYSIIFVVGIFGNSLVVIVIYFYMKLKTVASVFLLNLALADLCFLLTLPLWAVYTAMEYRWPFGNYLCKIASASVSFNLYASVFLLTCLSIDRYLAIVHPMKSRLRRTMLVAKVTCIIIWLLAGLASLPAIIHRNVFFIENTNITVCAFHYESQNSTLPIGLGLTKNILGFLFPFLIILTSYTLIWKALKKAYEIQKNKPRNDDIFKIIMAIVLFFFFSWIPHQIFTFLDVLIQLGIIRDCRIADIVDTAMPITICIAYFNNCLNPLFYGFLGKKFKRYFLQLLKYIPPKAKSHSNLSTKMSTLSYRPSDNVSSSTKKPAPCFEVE
Experiment: cell-based or functional assay

B1: CORET: Sar^1,Cys(Et)^5,Leu^8-AngII (peptide)
peptide: [Sar]RVY[Cys(Et)]HPL
- βarr activation by the AT1R, potency relative to AngII: 10 times less potent than AngII
